Assay results: patent publication US20210371461

Target: T1, MePEG2-IEGR (TFA salt)
T1 chain: IEGR

B1: plasmin (protein)
chain: KVYLSECKTGNGKNYRGTMSKTKNGITCQKWSSTSPHRPRFSPATHPSEGLEENYCRNPDNDPQGPWCYTTDPEKRYDYCDILECEEECMHCSGENYDGKISKTMSGLECQAWDSQSPHAHGYIPSKFPNKNLKKNYCRNPDRELRPWCFTTDPNKRWELCDIPRCTTPPPSSGPTYQCLKGTGENYRGNVAVTVSGHTCQHWSAQTPHTHNRTPENFPCKNLDENYCRNPDGKRAPWCHTTNSQVRWEYCKIPSCDSSPVSTEQLAPTAPPELTPVVQDCYHGDGQSYRGTSSTTTTGKKCQSWSSMTPHRHQKTPENYPNAGLTMNYCRNPDADKGPWCFTTDPSVRWEYCNLKKCSGTEASVVAPPPVVLLPDVETPSEEDCMFGNGKGYRGKRATTVTGTPCQDWAAQEPHRHSIFTPETNPRAGLEKNYCRNPDGDVGGPWCYTTNPRKLYDYCDVPQCAAPSFDCGKPQVEPKKCPGRVVGGCVAHPHSWPWQVSLRTRFGMHFCGGTLISPEWVLTAAHCLEKSPRPSSYKVILGAHQEVNLEPHVQEIEVSRLFLEPTRKDIALLKLSSPAVITDKVIPACLPSPNYVVADRTECFITGWGETQGTFGAGLLKEAQLPVIENKVCNRYEFLNGRVQSTELCAGHLAGGTDSCQGDSGGPLVCFEKDKYILQGVTSWGLGCARPNKPGVYVRVSRFVTWIEGVMRNN
luminescence signal (RLU) from substrate cleavage, 8 nM enzyme: 8 nM plasmin yielded ˜8.000 RLU

B2: tissue-type plasminogen activator (protein)
chain: SYQVICRDEKTQMIYQQHQSWLRPVLRSNRVEYCWCNSGRAQCHSVPVKSCSEPRCFNGGTCQQALYFSDFVCQCPEGFAGKCCEIDTRATCYEDQGISYRGTWSTAESGAECTNWNSSALAQKPYSGRRPDAIRLGLGNHNYCRNPDRDSKPWCYVFKAGKYSSEFCSTPACSEGNSDCYFGNGSAYRGTHSLTESGASCLPWNSMILIGKVYTAQNPSAQALGLGKHNYCRNPDGDAKPWCHVLKNRRLTWEYCDVPSCSTCGLRQYSQPQFRIKGGLFADIASHPWQAAIFAKHRRSPGERFLCGGILISSCWILSAAHCFQERFPPHHLTVILGRTYRVVPGEEEQKFEVEKYIVHKEFDDDTYDNDIALLQLKSDSSRCAQESSVVRTVCLPPADLQLPDWTECELSGYGKHEALSPFYSERLKEAHVRLYPSSRCTSQHLLNRTVTDNMLCAGDTRSGGPQANLHDACQGDSGGPLVCLNDGRMTLVGIISWGLGCGQKDVPGVYTKVTNYLDWIRDNMRP
luminescence signal (RLU) from substrate cleavage, 193 IU/mL enzyme: 193 IU/mL tPA yielded ˜6.000 RLU

B3: factor XIIa (protein)
chain: IPPWEAPKEHKYKAEEHTVVLTVTGEPCHFPFQYHRQLYHKCTHKGRPGPQPWCATTPNFDQDQRWGYCLEPKKVKDHCSKHSPCQKGGTCVNMPSGPHCLCPQHLTGNHCQKEKCFEPQLLRFFHKNEIWYRTEQAAVARCQCKGPDAHCQRLASQACRTNPCLHGGRCLEVEGHRLCHCPVGYTGAFCDVDTKASCYDGRGLSYRGLARTTLSGAPCQPWASEATYRNVTAEQARNWGLGGHAFCRNPDNDIRPWCFVLNRDRLSWEYCDLAQCQTPTQAAPPTPVSPRLHVPLMPAQPAPPKPQPTTRTPPQSQTPGALPAKREQPPSLTRNGPLSCGQRLRKSLSSMTRVVGGLVALRGAHPYIAALYWGHSFCAGSLIAPCWVLTAAHCLQDRPAPEDLTVVLGQERRNHSCEPCQTLAVRSYRLHEAFSPVSYQHDLALLRLQEDADGSCALLSPYVQPVCLPSGAARPSETTLCQVAGWGHQFEGAEEYASFLQEAQVPFLSLERCSAPDVHGSSILPGMLCAGFLEGGTDACQGDSGGPLVCEDQAAERRLTLQGIISWGSGCGDRNKPGVYTDVAYYLAWIREHTVS
luminescence signal (RLU) from substrate cleavage, 145 nM enzyme: 145 nM FXlla yielded ˜500 RLU
